T1: soluble heterodimeric hCD3ε/δ.mFc protein (human)
T1 construct: also called soluble human CD3; soluble heterodimeric CD3 protein
T1 chain 1: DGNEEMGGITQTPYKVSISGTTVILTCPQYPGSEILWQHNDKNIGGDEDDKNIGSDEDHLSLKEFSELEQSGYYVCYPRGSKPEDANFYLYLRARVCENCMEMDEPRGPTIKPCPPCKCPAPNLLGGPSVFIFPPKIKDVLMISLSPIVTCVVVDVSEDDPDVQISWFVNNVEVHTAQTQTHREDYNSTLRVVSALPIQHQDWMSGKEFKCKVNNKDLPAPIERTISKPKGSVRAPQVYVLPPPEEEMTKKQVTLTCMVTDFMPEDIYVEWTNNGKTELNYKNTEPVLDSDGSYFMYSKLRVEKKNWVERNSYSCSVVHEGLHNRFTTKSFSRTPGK
T1 chain 2: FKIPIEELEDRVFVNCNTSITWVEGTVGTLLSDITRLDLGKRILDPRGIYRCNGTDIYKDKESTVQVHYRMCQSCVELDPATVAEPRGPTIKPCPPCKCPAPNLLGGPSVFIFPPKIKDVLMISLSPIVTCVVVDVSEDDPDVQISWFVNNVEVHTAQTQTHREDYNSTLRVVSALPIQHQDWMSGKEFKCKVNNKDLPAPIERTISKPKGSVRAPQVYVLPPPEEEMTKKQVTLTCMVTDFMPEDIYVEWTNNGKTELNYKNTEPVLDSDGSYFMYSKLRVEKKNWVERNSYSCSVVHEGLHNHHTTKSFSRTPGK


What was measured:
[1] = target: T1, soluble heterodimeric hCD3ε/δ.mFc …; assay: SPR MASS-1, 37 C, antigen-capture (hCD3ε/δ.mFc captured), antibody injected
Procedure: Measurements were conducted on a Sierra Sensors MASS-1 instrument.
In the antigen-capture format, the MASS-1 high-density amine sensor surface was derivatized with a goat anti-mouse IgG2a polyclonal antibody (Southern Biotech). Soluble heterodimeric CD3 protein was captured and the respective antibodies were injected over the captured antigen.
Kinetic association (kₐ) and dissociation (kd) rate constants were determined by processing and fitting the data to a 1:1 binding model using MASS-1 AnalyserR2 curve fitting software. Binding dissociation equilibrium constants (KD) and dissociative half-lives (t_{1/2}) were calculated from the kinetic rate constants as: KD (M)=kd/kₐ; and t_{1/2} (min)=(ln 2/(60*kd).

[2] = target: T2, human CD3 on CD3-expressing cells (Jurkat, human T cells) (human, UniProt P07766 23-207; P04234 22-171); assay: FACS on Jurkat cells
T2 construct: On cells CD3 stands within the T cell receptor complex (also gamma and zeta chains); also called human CD3 expressing Jurkat cells
Procedure: (§1) Briefly, 2×10⁵ cells/well of human CD3-expressing Jurkat, cynomolgus T, or human PSMA-specific expressing cells were incubated with a serial dilution of bispecific antibodies for 30 min at 4° C. After incubation, cells were washed and a goat F(ab′)₂ anti-human Fcγ PE labeled secondary (Jackson Immunolabs) was added to the cells for an additional 30 min. Next, cells were washed, re-suspended in cold PBS+1% BSA and analyzed via flow cytometry on a BD FACS Canto II.
(§2) For FACS analysis, cells were gated by forward scatter height vs. forward scatter area for single events selection, followed by side and forward scatters. The EC₅₀ for cell binding titration was determined using Prism software. Values were calculated using 4-parameter non-linear regression analysis.

[3] = target: T3, human PSMA on PSMA-expressing cells (human, UniProt Q04609 1-750); assay: FACS on B16F10.9/PSMA cells
T3 construct: Cell line is named under assay or readout in each row; also called B16F10.9/hPSMA; B16F10.9/PSMA
Procedure: as §1, §2

T2 sequence (P07766 23-207 limits assumed, chain 1 of 2): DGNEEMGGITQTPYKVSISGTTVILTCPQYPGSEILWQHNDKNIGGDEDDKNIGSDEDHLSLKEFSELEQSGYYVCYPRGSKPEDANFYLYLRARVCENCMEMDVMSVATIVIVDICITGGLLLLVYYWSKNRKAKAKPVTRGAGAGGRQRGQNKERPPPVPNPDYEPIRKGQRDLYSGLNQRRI
T2 sequence (P04234 22-171 limits assumed, chain 2 of 2): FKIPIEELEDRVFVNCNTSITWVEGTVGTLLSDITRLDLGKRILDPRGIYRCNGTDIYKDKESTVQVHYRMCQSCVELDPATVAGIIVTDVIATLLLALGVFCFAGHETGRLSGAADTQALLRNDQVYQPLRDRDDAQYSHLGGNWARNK
T3 sequence (Q04609 whole entry): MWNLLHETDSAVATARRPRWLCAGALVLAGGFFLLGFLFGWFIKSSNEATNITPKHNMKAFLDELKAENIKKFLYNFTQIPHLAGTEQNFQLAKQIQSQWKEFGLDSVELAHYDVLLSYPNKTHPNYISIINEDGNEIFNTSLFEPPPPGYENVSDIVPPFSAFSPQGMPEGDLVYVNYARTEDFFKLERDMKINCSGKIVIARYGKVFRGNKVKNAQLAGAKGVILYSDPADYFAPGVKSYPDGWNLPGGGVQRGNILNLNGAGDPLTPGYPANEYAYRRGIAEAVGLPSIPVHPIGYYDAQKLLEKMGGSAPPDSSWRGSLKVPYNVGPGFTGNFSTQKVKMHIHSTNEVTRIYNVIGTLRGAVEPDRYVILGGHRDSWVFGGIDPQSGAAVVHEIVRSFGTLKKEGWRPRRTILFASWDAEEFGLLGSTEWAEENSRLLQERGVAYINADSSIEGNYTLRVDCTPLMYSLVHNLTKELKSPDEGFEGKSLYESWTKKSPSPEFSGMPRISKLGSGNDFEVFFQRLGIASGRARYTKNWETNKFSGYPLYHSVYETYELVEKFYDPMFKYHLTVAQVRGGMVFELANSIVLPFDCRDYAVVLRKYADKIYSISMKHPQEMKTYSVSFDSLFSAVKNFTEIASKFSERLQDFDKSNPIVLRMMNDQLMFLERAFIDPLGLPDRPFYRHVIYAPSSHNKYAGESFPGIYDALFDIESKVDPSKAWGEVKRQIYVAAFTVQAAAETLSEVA

Kd [1]	T½ [1]	koff [1]	kon [1]	EC50 [2]	EC50 [3]	Binder
115 nM	2.3 min	0.00509 s⁻¹	44300 M⁻¹ s⁻¹	60.7 nM	1.35 nM	BSPSMA/CD3-1900 (bispecific antibody, IgG4, V domains shown, modified (chimeric) IgG4 Fc domain; also called PSMA-VH-11810 x CD3-VH-G19) VH 1: QVQLVESGGGVVQPGRSLRLSCAASGFTFSSYGMHWVRQAPGKGLEWVAVISYAGNNKYYADSVKGRFTVSRDNSKKTLYLQMNSLRSEDTAVYYCAKDSYYDFLTDPDVLDIWGQGTMVTVSS VH 2: EVQLVESGGGLVQPGRSLRLSCAASGFTFDDYSMHWVRQAPGKGLEWVSGISWNSGSIGYADSVKGRFTISRDNAKNSLYLQMNSLRAEDTALYYCAKDGSGYGKFYHYGMDVWGQGTTVTVSS VL: DIQMTQSPSSLSASVGDSVTITCRASQSINNYLNWYQQKPGKAPKLLIYTASSLLSGVPSRFSGSGSGTDFTLTISGLHPEDFATYFCQQSFSTPPITFGQGTRLDIK
77.5 nM	4.9 min	0.00234 s⁻¹	30200 M⁻¹ s⁻¹	106 nM	1.14 nM	BSPSMA/CD3-2100 (bispecific antibody, IgG4, V domains shown, modified (chimeric) IgG4 Fc domain; also called PSMA-VH-11810 x CD3-VH-G21) VH 1: QVQLVESGGGVVQPGRSLRLSCAASGFTFSSYGMHWVRQAPGKGLEWVAVISYAGNNKYYADSVKGRFTVSRDNSKKTLYLQMNSLRSEDTAVYYCAKDSYYDFLTDPDVLDIWGQGTMVTVSS VH 2: EVQLVESGGGLVQPGRSLRLSCAASGFTFDDYSMHWVRQAPGKGLEWVSGISWNSGSKGYADSVKGRFTISRDNAKNSLYLQMNSLRAEDTALYYCAKDGSGYGKFYYYGMDVWGQGTTVTVSS VL: DIQMTQSPSSLSASVGDSVTITCRASQSINNYLNWYQQKPGKAPKLLIYTASSLLSGVPSRFSGSGSGTDFTLTISGLHPEDFATYFCQQSFSTPPITFGQGTRLDIK

The next lines start with the binder.

Binder	Kd [1]	T½ [1]	koff [1]	kon [1]	EC50 [2]	EC50 [3]
BSPSMA/CD3-1200 (bispecific antibody, IgG4, V domains shown, modified (chimeric) IgG4 Fc domain; also called PSMA-VH-11810 x CD3-VH-G12) VH 1: QVQLVESGGGVVQPGRSLRLSCAASGFTFSSYGMHWVRQAPGKGLEWVAVISYAGNNKYYADSVKGRFTVSRDNSKKTLYLQMNSLRSEDTAVYYCAKDSYYDFLTDPDVLDIWGQGTMVTVSS VH 2: EVQLVESGGGLVQPGRSLRLSCAASGFTFDDYSMHWVRQAPGKGLEWVSGISWNSGSIGYADSVKGRFTISRDNAKNSLYLQMNSLRAEDTALYYCAKDGSGYGKFYHYGLDVWGQGTTVTVSS VL: DIQMTQSPSSLSASVGDSVTITCRASQSINNYLNWYQQKPGKAPKLLIYTASSLLSGVPSRFSGSGSGTDFTLTISGLHPEDFATYFCQQSFSTPPITFGQGTRLDIK	64.2 nM	4.7 min	0.00247 s⁻¹	38500 M⁻¹ s⁻¹	47.2 nM	1.16 nM
BSPSMA/CD3-1500 (bispecific antibody, IgG4, V domains shown, modified (chimeric) IgG4 Fc domain; also called PSMA-VH-11810 x CD3-VH-G15) VH 1: QVQLVESGGGVVQPGRSLRLSCAASGFTFSSYGMHWVRQAPGKGLEWVAVISYAGNNKYYADSVKGRFTVSRDNSKKTLYLQMNSLRSEDTAVYYCAKDSYYDFLTDPDVLDIWGQGTMVTVSS VH 2: EVQLVESGGGLVQPGRSLRLSCAASGFTFDDYSMHWVRQAPGKGLEWVSGISWNSGSKGYADSVKGRFTISRDNAKNSLYLQMNSLRAEDTALYYCAKDGSGYGKFYYYGLDVWGQGTTVTVSS VL: DIQMTQSPSSLSASVGDSVTITCRASQSINNYLNWYQQKPGKAPKLLIYTASSLLSGVPSRFSGSGSGTDFTLTISGLHPEDFATYFCQQSFSTPPITFGQGTRLDIK	82.9 nM	1.9 min	0.00611 s⁻¹	73600 M⁻¹ s⁻¹	93 nM	1.21 nM
BSPSMA/CD3-1600 (bispecific antibody, IgG4, V domains shown, modified (chimeric) IgG4 Fc domain; also called PSMA-VH-11810 x CD3-VH-G16) VH 1: QVQLVESGGGVVQPGRSLRLSCAASGFTFSSYGMHWVRQAPGKGLEWVAVISYAGNNKYYADSVKGRFTVSRDNSKKTLYLQMNSLRSEDTAVYYCAKDSYYDFLTDPDVLDIWGQGTMVTVSS VH 2: EVQLVESGGGLVQPGRSLRLSCAASGFTFDDYSMHWVRQAPGKGLEWVSGISWNSGSKGYADSVKGRFTISRDNAKNSLYLQMNSLRAEDTALYYCAKDGSGYGKFYHYGMDVWGQGTTVTVSS VL: DIQMTQSPSSLSASVGDSVTITCRASQSINNYLNWYQQKPGKAPKLLIYTASSLLSGVPSRFSGSGSGTDFTLTISGLHPEDFATYFCQQSFSTPPITFGQGTRLDIK	37.8 nM	4.7 min	0.00243 s⁻¹	64300 M⁻¹ s⁻¹	56.8 nM	1.03 nM

Source: US20190127480A1 (Regeneron, published 2019)
